Test results from article PMC6209228, “Crystal structure and functional characterization of a cold-active acetyl xylan esterase (PbAcE) from psychrophilic soil microbe Paenibacillus sp” (PLoS ONE, 2018).
Values belong to the molecule of their own block, whether it stands above or below them.

How the values were obtained:
PbAcE = target: T1, PbAcE (Paenibacillus sp. R4, UniProt A0A452CSP2); experiment: p-nitrophenol release at […] nm, initial rates, double reciprocal plot; format: biochemical; details: 20 mM Tris-HCl, 150 mM NaCl, pH 7.4; free enzyme
T1 construct: gene cloned in pET-28a (NdeI/XhoI), N-terminal His6 tag cut by thrombin, E. coli BL21(DE3); ~36 kDa monomer, hexamer 234 kDa; 1896 residues modelled in six chains; primers encode N-terminus MPNVDMP and C-terminus IEAYL; catalytic triad Ser185, Asp274, His303

[1] = target: cold-active acetyl xylan esterase (PbAcE) from Paenibacillus sp. R4 (Paenibacillus sp. R4); experiment: AUC; sedimentation velocity, 20°C, 0.5 mg/ml PbAcE, 20 mM Tris-HCl pH 8.0, 150 mM NaCl, 45,000 rpm, SEDFIT
purified protein = substrate: CCCC(=O)Oc1ccc([N+](=O)[O-])cc1; experiment: purified protein; format: biochemical, Paenibacillus sp. R4; details: 20 mM Tris-HCl, 150 mM NaCl, pH 7.4, free enzyme

Molecule: CC(=O)Oc1ccc([N+](=O)[O-])cc1 [pNP-C2, p-nitrophenyl acetate]
- Km (PbAcE): initial kinetic studies were performed for pNP-C2 and pNP-C4

- stoichiometry N [1]: 6
Molecule: cold-active acetyl xylan esterase (PbAcE) from Paenibacillus sp. R4 (enzyme)

B1: PbAcE (Paenibacillus sp. R4) (protein)
chain: MPNVDMPLSQLQDYKPELTNETDFDLFWDNAKALSNQKPLHAQVNLVQDYPLKSISIYDVVYDGADGTPIHGWYVTPKGEHQPGSLPVLVKYHGYSGNRGYPNELLQWASMGMAALAIDVRGQGGVTPDRAEYPQGGIPGWMTLGILDPASYYYKQVYLDCIRALDFVCSREEVDASRIAVYGGSQGGGLALAAAGLDSRPKLALPVFPFLCHFRRSVEIHASGPYVEIKNWFRRYDPEHRQEEQVYRTLSYFDGMNMASRIKARTLMAITLQDITCPPSTCFAAYNHLAGPKEVRLYHDYGHEGLPFHEEAMMRFIEAYL
notes: gene cloned in pET-28a (NdeI/XhoI), N-terminal His6 tag cut by thrombin, E. coli BL21(DE3); ~36 kDa monomer, hexamer 234 kDa; 1896 residues modelled in six chains; primers encode N-terminus MPNVDMP and C-terminus IEAYL; catalytic triad Ser185, Asp274, His303
- Km (purified protein): 1230 ± 330 µM
- kcat (purified protein): 0.19 ± 0.02 s⁻¹
